KR20230083068A (dated 2023)

Key:
[1] = molecular target: T1, 비오틴 펩타이드-6xHis-tagged HCoV-OC43 N 단백질 (HCoV-OC43 N 단백질-Bio-His6) (HCoV-OC43, UniProt P33469 1-448)
T1 chain: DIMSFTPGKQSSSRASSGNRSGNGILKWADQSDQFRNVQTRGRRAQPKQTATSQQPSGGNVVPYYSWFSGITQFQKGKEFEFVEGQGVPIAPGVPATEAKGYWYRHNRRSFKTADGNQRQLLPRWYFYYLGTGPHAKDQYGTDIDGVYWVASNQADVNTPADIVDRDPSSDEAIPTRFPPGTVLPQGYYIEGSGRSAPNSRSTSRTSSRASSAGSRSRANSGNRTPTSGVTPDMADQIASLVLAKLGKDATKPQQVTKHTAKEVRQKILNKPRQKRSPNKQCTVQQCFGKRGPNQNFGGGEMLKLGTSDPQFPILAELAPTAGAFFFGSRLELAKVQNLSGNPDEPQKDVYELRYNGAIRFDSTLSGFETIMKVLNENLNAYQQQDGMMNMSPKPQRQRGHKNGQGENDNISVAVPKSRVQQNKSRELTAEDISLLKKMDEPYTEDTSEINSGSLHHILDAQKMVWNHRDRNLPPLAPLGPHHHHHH

[2] = molecular target: MERS-CoV N 단백질 (MERS-CoV 감염 Vero 세포 용해물) (MERS-CoV, UniProt K9N4V7 1-411); assay: western blot of infected Vero cell lysates
[3] = molecular target: SARS-CoV-2 N 단백질 (SARS-CoV-2 감염 Vero 세포 용해물) (SARS-CoV-2, UniProt P0DTC9 1-419); assay: western blot of infected Vero cell lysates

B1: 항-HCoV-OC43 N 단백질 특이적 단클론 항체 (클론 1C7D7 mAb) (antibody, V domains shown)
VH: EVKLEQSGGGLVKPGGSLKLSCAASGFSFSSHTMSWVRQTPEKRLEWVATITSGGTYTYYPDSVKGRFTISRDNAKNTLYLQMTSLKSEDTAMYYCTRGQEADGYYVPFAYWGQGTLVTVSA
VL: DIVMTQSPSSLAVSVGEKVTMSCKSSQSLLYSSNQKNYLAWYQQKPGQSPKLLIFWASTRESGVPDRFTGSGSGTDFTLTISSVQAEDLAVYYCKQSYNLRTFGGGTKLEIKR
notes: also called anti-HCoV-OC43 N monoclonal antibody
[1]
  EC50: ~1.2 nM
[2]
  binding result: no binding
[3]
  binding result: no binding
